T1: human mutCALR on BaF3 cells stably expressing human MPL and human mutCALR (MPL-mutCALR cells) (human)
T1 construct: also called mutant calreticulin
T1 chain: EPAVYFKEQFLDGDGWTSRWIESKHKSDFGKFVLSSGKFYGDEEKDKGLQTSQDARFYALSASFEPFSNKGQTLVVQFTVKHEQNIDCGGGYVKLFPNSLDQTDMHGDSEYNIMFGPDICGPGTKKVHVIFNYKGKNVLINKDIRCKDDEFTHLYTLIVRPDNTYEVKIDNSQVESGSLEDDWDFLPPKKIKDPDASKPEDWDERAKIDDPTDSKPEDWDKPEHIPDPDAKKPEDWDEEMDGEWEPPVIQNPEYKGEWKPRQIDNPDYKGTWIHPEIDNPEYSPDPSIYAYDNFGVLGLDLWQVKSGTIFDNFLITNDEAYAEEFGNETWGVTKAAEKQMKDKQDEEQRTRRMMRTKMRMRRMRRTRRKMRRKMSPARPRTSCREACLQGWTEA

B1: anti-mutCALR antibody clone 55 (antibody, human IgG1, lambda, N297A)
heavy: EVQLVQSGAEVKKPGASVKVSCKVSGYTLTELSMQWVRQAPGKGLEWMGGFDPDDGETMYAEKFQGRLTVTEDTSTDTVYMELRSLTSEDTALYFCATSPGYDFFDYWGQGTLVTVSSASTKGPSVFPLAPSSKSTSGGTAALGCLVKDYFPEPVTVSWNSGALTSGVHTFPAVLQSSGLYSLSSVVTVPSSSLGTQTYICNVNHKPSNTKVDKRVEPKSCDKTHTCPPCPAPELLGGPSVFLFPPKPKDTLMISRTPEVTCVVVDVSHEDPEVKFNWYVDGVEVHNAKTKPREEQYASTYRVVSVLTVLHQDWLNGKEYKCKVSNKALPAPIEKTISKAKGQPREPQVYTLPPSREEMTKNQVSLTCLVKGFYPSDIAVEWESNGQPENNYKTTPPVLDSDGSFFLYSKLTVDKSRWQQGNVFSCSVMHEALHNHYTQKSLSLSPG
light: QSALTQPASVSGSPGQSITISCTGTSSDVGGYNYVSWYQQHPGKAPKLMIYEVSNRPSGVSNRFSGSNSGNTATLTINRVEAGDEADYYCQVWDSSNDLLIFGGGTKLTVLGQPKAAPSVTLFPPSSEELQANKATLVCLISDFYPGAVTVAWKADSSPVKAGVETTTPSKQSNNKYAASSYLSLTPEQWKSHRSYSCQVTHEGSTVEKTVAPTECS
notes: also called antibody 55
B2: anti-mutCALR antibody clone 138 (antibody, human IgG1, lambda, N297A, V domains shown)
VH: EVQLVQSGAEVKKPGASVKVSCKVSGYTLTELSMQWVRQAPGKGLEWMGGFDPDDAETMYAEKFQGRLTVTEDTSTDTVYMELRSLTSEDTALYFCATSPGYDFFDYWGQGTLVTVSS
VL: SYVLTQPPSVSVAPGKTARITCGGDNIGSKSVHWYQQKPGQAPVLVVYDDSDRPSGIPERFSGSNSGNTATLTISRVEAGDEADYYCQVWDSSNDLLIFGGGTKLTVLG
B3: anti-mutCALR antibody clone 142 (antibody, human IgG1, lambda, N297A, V domains shown)
VH: EVQLVQSGAEVKKPGASVKVSCKVSGYTLTELSMQWVRQAPGKGLEWMGGFDPDEGETMYAEKFQGRLTVTEDTSTDTVYMELSSLRSEDTAVYFCATSPGYDFFDYWGQGTLVTVSS
VL: SYVLTQPPSVSVAPGKTARITCGGDNIGSKSVHWYQQKPGQAPVLVVYDDSDRPSGIPERFSGSNSGNTATLTISRVEAGDEADYYCQVWDSSNDLLIFGGGTKLTVLG
B4: anti-mutCALR antibody clone 187 (antibody, human IgG1, lambda, N297A, V domains shown)
VH: EVQLVQSGAEVKKPGASVKVSCKVSGYTLTELSMQWVRQAPGKGLEWMGGFDPDSGETMYAEKFQGRLTVTEDTSTDTVYMELSSLRSEDTAVYFCATSPGYDFFDYWGQGTLVTVSS
VL: SYVLTQPPSVSVAPGQTARITCGGSDIGDEIVHWYQQKPGQAPVLVVYDDSDRPSGIPERFSGSNSGNTATLTISRVEAGDEADYYCQVWDSSSDHLIFGGGTKLTVLG
B5: anti-mutCALR antibody clone 174 (antibody, human IgG1, lambda, N297A, V domains shown)
VH: EVQLVQSGAEVKKPGASVKVSCKVSGYTLTELSMQWVRQAPGKGLEWMGGFDPDDAETMYAEKFQGRLTVTEDTSTDTVYMELRSLTSEDTALYFCATSPGYDFFDYWGQGTLVTVSS
VL: SYVLTQPPSVSVAPGQTARITCGGSDIGDEIVHWYQQKPGQAPVLVVYDDSDRPSGIPERFSGSNSGNTATLTISRAQAGDEADYYCQVWDSSSDHLIFGGGTKLTVLG
B6: anti-mutCALR antibody clone 182 (antibody, human IgG1, lambda, N297A, V domains shown)
VH: EVQLVQSGAEVKKPGASVKVSCKVSGYTLTELSMQWVRQAPGKGLEWMGGFDPDSGETMYAEKFQGRLTVTEDTSTDTVYMELRSLTSEDTALYFCATSPGYDFFDYWGQGTLVTVSS
VL: SYVLTQPPSVSVAPGQTARITCGGSDIGDEIVHWYQQKPGQAPVLVVYDDSDRPSGIPERFSGSNSGNTATLTISRVEAGDEADYYCQVWDSSSDHLIFGGGTKLTVLG
B7: anti-mutCALR antibody clone 143 (antibody, human IgG1, lambda, N297A, V domains shown)
VH: EVQLVQSGAEVKKPGASVKVSCKVSGYTLTELSMQWVRQAPGKGLEWMGGFDPDDAETMYAEKFQGRLTVTEDTSTDTVYMELSSLRSEDTAVYFCATSPGYDFFDYWGQGTLVTVSS
VL: SYVLTQPPSVSVAPGKTARITCGGDNIGSKSVHWYQQKPGQAPVLVVYDDSDRPSGIPERFSGSNSGNTATLTISRVEAGDEADYYCQVWDSSNDLLIFGGGTKLTVLG
B8: anti-mutCALR antibody clone 170 (antibody, human IgG1, lambda, N297A)
heavy: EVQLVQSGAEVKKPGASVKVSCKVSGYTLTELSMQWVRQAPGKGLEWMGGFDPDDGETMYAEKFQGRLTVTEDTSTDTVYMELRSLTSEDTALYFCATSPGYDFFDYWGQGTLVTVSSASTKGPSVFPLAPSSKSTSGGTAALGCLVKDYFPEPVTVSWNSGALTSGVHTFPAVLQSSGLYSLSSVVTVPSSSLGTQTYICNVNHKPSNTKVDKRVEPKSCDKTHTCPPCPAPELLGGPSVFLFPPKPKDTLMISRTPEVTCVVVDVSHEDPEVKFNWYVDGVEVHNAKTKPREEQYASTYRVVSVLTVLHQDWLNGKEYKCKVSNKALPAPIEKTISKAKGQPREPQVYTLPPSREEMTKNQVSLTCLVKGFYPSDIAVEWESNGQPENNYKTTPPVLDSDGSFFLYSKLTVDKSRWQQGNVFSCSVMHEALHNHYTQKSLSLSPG
light: SYVLTQPPSVSVAPGQTARITCGGSDIGDEIVHWYQQKPGQAPVLVVYDDSDRPSGIPERFSGSNSGNTATLTISRAQAGDEADYYCQVWDSSSDHLIFGGGTKLTVLGQPKAAPSVTLFPPSSEELQANKATLVCLISDFYPGAVTVAWKADSSPVKAGVETTTPSKQSNNKYAASSYLSLTPEQWKSHRSYSCQVTHEGSTVEKTVAPTECS
B9: anti-mutCALR antibody clone 140 (antibody, human IgG1, lambda, N297A, V domains shown)
VH: EVQLVQSGAEVKKPGASVKVSCKVSGYTLTELSMQWVRQAPGKGLEWMGGFDPDAGETMYAEKFQGRLTVTEDTSTDTVYMELSSLRSEDTAVYFCATSPGYDFFDYWGQGTLVTVSS
VL: SYVLTQPPSVSVAPGKTARITCGGDNIGSKSVHWYQQKPGQAPVLVVYDDSDRPSGIPERFSGSNSGNTATLTISRVEAGDEADYYCQVWDSSNDLLIFGGGTKLTVLG
B10: anti-mutCALR antibody clone 188 (antibody, human IgG1, lambda, N297A, V domains shown)
VH: EVQLVQSGAEVKKPGASVKVSCKVSGYTLTELSMQWVRQAPGKGLEWMGGFDPDEGETMYAEKFQGRLTVTEDTSTDTVYMELSSLRSEDTAVYFCATSPGYDFFDYWGQGTLVTVSS
VL: SYVLTQPPSVSVAPGQTARITCGGSDIGDEIVHWYQQKPGQAPVLVVYDDSDRPSGIPERFSGSNSGNTATLTISRVEAGDEADYYCQVWDSSSDHLIFGGGTKLTVLG
B11: anti-mutCALR antibody clone 141 (antibody, human IgG1, lambda, N297A, V domains shown)
VH: EVQLVQSGAEVKKPGASVKVSCKVSGYTLTELSMQWVRQAPGKGLEWMGGFDPDSGETMYAEKFQGRLTVTEDTSTDTVYMELSSLRSEDTAVYFCATSPGYDFFDYWGQGTLVTVSS
VL: SYVLTQPPSVSVAPGKTARITCGGDNIGSKSVHWYQQKPGQAPVLVVYDDSDRPSGIPERFSGSNSGNTATLTISRVEAGDEADYYCQVWDSSNDLLIFGGGTKLTVLG
B12: anti-mutCALR antibody clone 171 (antibody, human IgG1, lambda, N297A, V domains shown)
VH: EVQLVQSGAEVKKPGASVKVSCKVSGYTLTELSMQWVRQAPGKGLEWMGGFDPDAGETMYAEKFQGRLTVTEDTSTDTVYMELRSLTSEDTALYFCATSPGYDFFDYWGQGTLVTVSS
VL: SYVLTQPPSVSVAPGQTARITCGGSDIGDEIVHWYQQKPGQAPVLVVYDDSDRPSGIPERFSGSNSGNTATLTISRAQAGDEADYYCQVWDSSSDHLIFGGGTKLTVLG
B13: anti-mutCALR antibody clone 181 (antibody, human IgG1, lambda, N297A, V domains shown)
VH: EVQLVQSGAEVKKPGASVKVSCKVSGYTLTELSMQWVRQAPGKGLEWMGGFDPDAGETMYAEKFQGRLTVTEDTSTDTVYMELRSLTSEDTALYFCATSPGYDFFDYWGQGTLVTVSS
VL: SYVLTQPPSVSVAPGQTARITCGGSDIGDEIVHWYQQKPGQAPVLVVYDDSDRPSGIPERFSGSNSGNTATLTISRVEAGDEADYYCQVWDSSSDHLIFGGGTKLTVLG
B14: anti-mutCALR antibody clone 172 (antibody, human IgG1, lambda, N297A, V domains shown)
VH: EVQLVQSGAEVKKPGASVKVSCKVSGYTLTELSMQWVRQAPGKGLEWMGGFDPDSGETMYAEKFQGRLTVTEDTSTDTVYMELRSLTSEDTALYFCATSPGYDFFDYWGQGTLVTVSS
VL: SYVLTQPPSVSVAPGQTARITCGGSDIGDEIVHWYQQKPGQAPVLVVYDDSDRPSGIPERFSGSNSGNTATLTISRAQAGDEADYYCQVWDSSSDHLIFGGGTKLTVLG
B15: anti-mutCALR antibody clone 186 (antibody, human IgG1, lambda, N297A, V domains shown)
VH: EVQLVQSGAEVKKPGASVKVSCKVSGYTLTELSMQWVRQAPGKGLEWMGGFDPDAGETMYAEKFQGRLTVTEDTSTDTVYMELSSLRSEDTAVYFCATSPGYDFFDYWGQGTLVTVSS
VL: SYVLTQPPSVSVAPGQTARITCGGSDIGDEIVHWYQQKPGQAPVLVVYDDSDRPSGIPERFSGSNSGNTATLTISRVEAGDEADYYCQVWDSSSDHLIFGGGTKLTVLG
B16: anti-mutCALR antibody clone 189 (antibody, human IgG1, lambda, N297A, V domains shown)
VH: EVQLVQSGAEVKKPGASVKVSCKVSGYTLTELSMQWVRQAPGKGLEWMGGFDPDDAETMYAEKFQGRLTVTEDTSTDTVYMELSSLRSEDTAVYFCATSPGYDFFDYWGQGTLVTVSS
VL: SYVLTQPPSVSVAPGQTARITCGGSDIGDEIVHWYQQKPGQAPVLVVYDDSDRPSGIPERFSGSNSGNTATLTISRVEAGDEADYYCQVWDSSSDHLIFGGGTKLTVLG
B17: anti-mutCALR antibody clone 183 (antibody, human IgG1, lambda, N297A, V domains shown)
VH: EVQLVQSGAEVKKPGASVKVSCKVSGYTLTELSMQWVRQAPGKGLEWMGGFDPDEGETMYAEKFQGRLTVTEDTSTDTVYMELRSLTSEDTALYFCATSPGYDFFDYWGQGTLVTVSS
VL: SYVLTQPPSVSVAPGQTARITCGGSDIGDEIVHWYQQKPGQAPVLVVYDDSDRPSGIPERFSGSNSGNTATLTISRVEAGDEADYYCQVWDSSSDHLIFGGGTKLTVLG
B18: anti-mutCALR antibody clone 173 (antibody, human IgG1, lambda, N297A, V domains shown)
VH: EVQLVQSGAEVKKPGASVKVSCKVSGYTLTELSMQWVRQAPGKGLEWMGGFDPDEGETMYAEKFQGRLTVTEDTSTDTVYMELRSLTSEDTALYFCATSPGYDFFDYWGQGTLVTVSS
VL: SYVLTQPPSVSVAPGQTARITCGGSDIGDEIVHWYQQKPGQAPVLVVYDDSDRPSGIPERFSGSNSGNTATLTISRAQAGDEADYYCQVWDSSSDHLIFGGGTKLTVLG
B19: anti-mutCALR antibody clone 184 (antibody, human IgG1, lambda, N297A, V domains shown)
VH: EVQLVQSGAEVKKPGASVKVSCKVSGYTLTELSMQWVRQAPGKGLEWMGGFDPDDAETMYAEKFQGRLTVTEDTSTDTVYMELRSLTSEDTALYFCATSPGYDFFDYWGQGTLVTVSS
VL: SYVLTQPPSVSVAPGQTARITCGGSDIGDEIVHWYQQKPGQAPVLVVYDDSDRPSGIPERFSGSNSGNTATLTISRVEAGDEADYYCQVWDSSSDHLIFGGGTKLTVLG

Biological target: T1, human mutCALR on BaF3 cells stably …
Experiment: flow cytometry, BaF3 MPL-mutCALR cells
Protocol: On the day of the assay, cells were washed and resuspended in assay buffer. Approximately 200,000 cells/well were added to 96-well plates and stained with the indicated concentration of antibodies for 30 minutes on ice. Cells were then washed and stained with goat anti-human secondary conjugated to R-phycoerythrin (R-PE) (Jackson Immuno Research Laboratories) for 30 minutes on ice. The cells were then washed and analyzed by flow cytometry.

In order of rising EC50:
1. B3  2.3 ng/mL
2. B2  2.6 ng/mL
3. B4  3.5 ng/mL
4. B13  3.5 ng/mL
5. B15  3.9 ng/mL
6. B5  4 ng/mL
7. B9  4.3 ng/mL
8. B18  4.3 ng/mL
9. B10  4.4 ng/mL
10. B17  5 ng/mL
11. B6  5.2 ng/mL
12. B11  6.3 ng/mL
13. B19  6.3 ng/mL
14. B7  7.9 ng/mL
15. B16  10 ng/mL
16. B1  10.1 ng/mL
17. B14  12.4 ng/mL
18. B12  21.7 ng/mL
19. B8  23.2 ng/mL

In order of rising “MPL-mutCALR AUC” value:
1. B4  49500
2. B12  50300
3. B6  52100
4. B15  53000
5. B14  53600
6. B9  54700
7. B13  55600
8. B16  57200
9. B11  60800
10. B19  61600
11. B5  63500
12. B18  67300
13. B10  68000
14. B7  69900
15. B17  70700
16. B3  71100
17. B1  73100
18. B8  76400
19. B2  85800
